Experimental data: paper PMC12866851, “ACSL5 Regulates Glucose Metabolism and Chemotherapy Sensitivity in Colorectal Cancer Cells under Glutamine Deficiency” (Advanced Science, 2025)

Biological target: the molecule itself
Assay: cross-linking; HCT116 cells (shctrl or shACSL5) treated without or with DSS crosslinker; whole cell lysates, Western blot against IDH2; dimer and monomer of IDH2

B1: isocitrate dehydrogenase 2 (IDH2) (enzyme, human (endogenous in HCT116), UniProt P48735 40-452, looked up)
chain: ADKRIKVAKPVVEMDGDEMTRIIWQFIKEKLILPHVDIQLKYFDLGLPNRDQTDDQVTIDSALATQKYSVAVKCATITPDEARVEEFKLKKMWKSPNGTIRNILGGTVFREPIICKNIPRLVPGWTKPITIGRHAHGDQYKATDFVADRAGTFKMVFTPKDGSGVKEWEVYNFPAGGVGMGMYNTDESISGFAHSCFQYAIQKKWPLYMSTKNTILKAYDGRFKDIFQEIFDKHYKTDFDKNKIWYEHRLIDDMVAQVLKSSGGFVWACKNYDGDVQSDILAQGFGSLGLMTSVLVCPDGKTIEAEAAHGTVTRHYREHQKGRPTSTNPIASIFAWTRGLEHRGKLDGNQDLIRFAQMLEKVCVETVESGAMTKDLAGCIHGLSNVKLNEHFLNTTDFLDTIKSNLDRALGRQ
notes: IDH2, mitochondrial isocitrate dehydrogenase 2, endogenous in human HCT116 cells; source: endogenous, HCT116 lysate
stoichiometry N: 2
